In the supplement of paper PMC9170038:

Tested on: MS2 coat protein
Assay: apparent KD of MS2 coat protein; designed switch direction (-1 OFF switch, 1 ON switch): -1; higher = weaker reporter binding
How it was run: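 Apparent KD, taken as the median over clusters for each design, was obtained by curve-fitting normalised cluster fluorescence. Designed RNA switches had been transcribed on Illumina chips by stalled E. coli RNA polymerase and titrated with SNAP-549-labelled MS2 coat protein, doubling from 0.7 or 1.5 nM to 3 µM.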

[1] = input ligand: microRNA oligo, concentration not stated
[2] = Eterna round: R95, input ligand: microRNA oligo, concentration not stated
[3] = Eterna round: R95, input ligand: FMN 200 uM
[4] = Eterna round: R95, input ligand: none

Sequence | apparent KD of MS2 coat protein (input ligand: FMN 200 uM) | apparent KD of MS2 coat protein [1] | apparent KD of MS2 coat protein (input ligand: none) | apparent KD of MS2 coat protein [2] | apparent KD of MS2 coat protein [3] | apparent KD of MS2 coat protein [4]
AACCUGAGGCUUUGCUUUAGGUUUACAUGAGGAUCACCCAUGUAGGAUAUGGUAGGCUUUGCUUACCAGAAGGACAUGAAAAUU [Mat - Exclusion NG 3 - Mod of JL - D28] (Eterna round: R96, puzzle: Exclusion NG 3) | 225 nM | 40.4 nM | 44.2 nM | – | – | –
UCGCUCCGUGUAGGAUAUCGCUGUAUGAUGCGGCGAGAAGGACAUGAGGAUCACCCAUGUAUGUUAUUAUCACGCGUGGCGCAA [Design 64] (Eterna round: R96, puzzle: Exclusion NG 1) | 21.8 nM | 11.6 nM | 17.5 nM | – | – | –
GUGGUACAUGAGGAUCACCCAUGUUAGGAUAUCGCGUGGUUUUUUGCGGCCGCGCGCGCGAGAAGGGACGUCUU (puzzle: Exclusion 1) | – | – | – | 29.3 nM | – | –
UCGAGGUCAGGAUAUACAUGAGGAUCACCCAUGUUGAGAUAAGGUAGGAAAAGAGUAGGUAGAAGGGACGAGAG [JR_Exclu3_Sub047] (puzzle: Exclusion 3) | – | – | – | 27.3 nM | – | –
AGUGCGUAUGUGAGGAUAUGCUGGUCCUUGGCUCGGCAGAAGGCACAUGAGGAUCACCCAUGUGGUGUCGUACG [salish99_Bmod_ex4_065] (puzzle: Brourd's mod of Exclusion 4) | – | – | – | 48.8 nM | – | –
UAUAUAUAGUAAGGAUAUGUAAUUAUUCUAUAAACAGAAGGUACUGACAUGAGGAUCACCCAUGUUUUAGUGUGGGCAUGUAGA [JMF's solution 40] (Eterna round: R96, puzzle: Exclusion NG 1) | – | 33.8 nM | – | – | – | –
GGAUAAAACUGAGGAUAUACGUAUCACUAACGAGUAGAAGGCAGACAUGAGGAUCACCCAUGUGAGUUCUCAAUAAGAAACACG [Prohibition 65 - Jieux - Exclusion NG 1] (Eterna round: R96, puzzle: Exclusion NG 1) | 74.9 nM | 43.5 nM | 51.2 nM | – | – | –
GUUAAACAUGAGGAUCACCCAUGUAAGGAUAUGCUGAGGUAGAGAUGAAGUGAAUGAAGCAGAAGGUACAAAUG [Mat - Mod of JL D64] (puzzle: Exclusion 1) | – | – | – | 83.2 nM | 51.5 nM | 113 nM
AAUACAAGCUAUUGAUCCCACAUGAGGAUCACCCAUGUAGCUGGCCGUGAGACCAGCUUUACAAUAGCUCGUCUUAU [Sensor-V1 #49] (Eterna round: R97, puzzle: Sensor, turn-off variant 1) | 75.2 nM | – | 71.3 nM | – | – | –
AGUAGAUCUACGCUUGCGUGGAUCUGCGAGGCAGGUGUAACAUGAGGAUCACCCAUGUCCUCAUUUGUUCGUCUUAU [JL turnoff v2 99.19] (puzzle: Sensor v3, turn-off variant 2) | – | – | – | 377 nM | 379 nM | 477 nM
UUCGGCGCAGGAUAUACAGUUCUGUGUUGAAUCGGCGCGGGACAUGAGGAUCACCCAUGUAGAAGGGUGUUGGG [-26.9, -23.2 kcal, A 22%] (Eterna round: R97, puzzle: Exclusion 2) | 220 nM | – | 538 nM | – | – | –
UUACUGUGAGGAUAUUACAUUUAGCGGCUAGCAACUAGGGAUAAGAAGGCACAUGAGGAUCACCCAUGUCCCGU [Eternabot (L1) Solution 35] (Eterna round: R97, puzzle: Exclusion 4) | 95.7 nM | – | 21.5 nM | – | – | –
GUCAGCUCGUGAGGAUAUACAUGCGUGCUUCGGCACGAAUUUAAGAUCACAUGAGGAUCACCCAUGUAGAAGGUACGAGCUGAC [ENG2/3-C1] (Eterna round: R96, puzzle: Exclusion NG 2) | 632 nM | 646 nM | 387 nM | – | – | –
UUUAAUUUUUUUUUUUUACAAGCUUUUUGCUCGUCUUAUACAUGAGGAUCACCCAUGUAGGUGGGAAGUAAAUUAUC [JMF 57] (puzzle: Sensor v3, turn-off variant 2) | – | – | – | 97.5 nM | 33 nM | 37.5 nM
AGCUGUGGCCGAGGAUAUCUACAUGAGGAUCACCCAUGUGGGUGAAAUAUCGGGAAAACCUCGAUGGAGAAGGCGGUCUCAGCA [Eli eng2 - 046] (Eterna round: R96, puzzle: Exclusion NG 2) | 849 nM | 234 nM | 263 nM | – | – | –
CUAGCUUCGGCUAGUACAAGCUUUUUGCUCGUCUUAUUAACAUGAGGAUCACCCAUGUCAAAGAGACCUCAUGUAUU [Sensor v3 - turn-off variant 2 - 2] (puzzle: Sensor v3, turn-off variant 2) | – | – | – | 15.5 nM | 347 nM | 572 nM
CAGGUGUGAGGAUAUGUGAUUAUGAUAGACCGAGUCUACCCACAGAAGGCACAUGAGGAUCACCCAUGUGAGUA [Eternabot (L1) Solution 75] (Eterna round: R97, puzzle: Exclusion 4) | 122 nM | – | 46.6 nM | – | – | –
ACUAGUCUAAAGGAUAUGGACCUGAACAAAUGGCCAGAAGGUUAAACAUGAGGAUCACCCAUGUAGGUGCGCCA [Eternabot (Original) Solution 18] (Eterna round: R97, puzzle: Exclusion 6) | 31.2 nM | – | 27.2 nM | – | – | –
AAUUAAGCAAGCAGAUCCCACAUGAGGAUCACCCAUGUGCUCGUCUUAUAAGGUACUGUGACGAGAGUCACGGUACC [Mat - Sensor, turn-off var - Eli Mod - D70] (Eterna round: R97, puzzle: Sensor, turn-off variant 1) | 128 nM | – | 97.1 nM | – | – | –
GGUGAGCUAGGAUAUGCUUUGGGCUCGCUUUCCUUCGAUAUACUUGAGGAUCACCCAAGUAGAAGGAGCUUGCC [salish99_ex2_r4_034] (Eterna round: R97, puzzle: Exclusion 2) | 11.1 nM | – | 11.2 nM | – | – | –
GUAAAGUGAGGAUAUGGUAAAUUAAUUAUUAAUUAAUUAAUCCAGAAGGCACAUGAGGAUCACCCAUGUAAUUG [Mat - Exclusion 4 - D86] (puzzle: Exclusion 4) | – | – | – | 22.2 nM | – | –
ACAUGAGGAUCACCCAUGUUUUUUGGGUACUCUUGUUUCUGCAAGGAUAUGCAUUAUUUAUGUACGCAGAAGGUGCAUUACGUC [JR_ExcNG3_Sub062] (Eterna round: R96, puzzle: Exclusion NG 3) | 696 nM | 692 nM | 962 nM | – | – | –
UUUUAGAGAGGAUAUAUUAUGUGAAACAUGAGGAUCACCCAUGUAAUAUAAUGGAUGUAAAUAGAAGGCUCAUUUA [Mat - Exclusion 5 - JL mod - D22] (puzzle: Exclusion 5) | – | – | – | 28.4 nM | 28.4 nM | 41.1 nM
AGGUAACAUGAGGAUCACCCAUGUCAGGAUAUCAGUAAGAGGAGGAUAGAAUAGAGUAUGAGAAGGGACUAUAU [Excluse me! 23 - Jieux - Exclusion 1] (puzzle: Exclusion 1) | – | – | – | 40.7 nM | 48 nM | 47.8 nM
UCACGGGAUUGAGGAUAUAUAUUAAUUUUUUUUAUAGAAGGCAAAAUGUUAGAUUAUUCACUAUACAUGAGGAUCACCCAUGUU [JR_ExcBG1_Sub076] (Eterna round: R96, puzzle: Exclusion NG 1) | – | 18.2 nM | – | – | – | –
